Test results from the DeepSol protein solubility set.

assay: soluble on expression in E. coli; label from the status in PepcDB or PDB records

Sequence	soluble on expression in E. coli
MLEADDQGCIEEQGVEDSANEDSVDAKPDRSSFVPSLFSKKKKNVTMRSIKTTRDRVPTYQYNMNFEKLGKCIIINNKNFDKVTGMGVRNGTDKDAEALFKCFRSLGFDVIVYNDCSCAKMQDLLKKASEEDHTNAACFACILLSHGEENVIYGKDGVTPIKDLTAHFRGDRSKTLLEKPKLFFIQACRGTELDDGIQADSGPINDTDANPRYKIPVEADFLFAYSTVPGYYSWRSPGRGSWFVQALCSILEEHGKDLEIMQILTRVNDRVARHFESQSDDPHFHEKKQIPCVVSMLTKELYFSQ	soluble
MNEADYLRLLTRQAEQANDFLSNARKWDRERWVCQRFLEALNVPYRQEDFAAPGEQPPDVLFKGAGFEVFFVLDEGRRLNEEWREELTRRRQAVSLRQLIRREERPQRIAAAELQARLAPTLRKKAHNYSERGIDHGELDLLAFVNLKRAVPDFNTPFPPPTEYLRQGWRSLSMVGPTFARVLFAHSGAPEFLRANLGRSILFDAGVGL	soluble
MGGDADSPRERIEALAEDDHVEMRRAVDSAITSDAAAIIVIAGVGGATGSVIAPKLTDALQRIYDRPVYAVSVLPATHEEVPPENPARAIAAFESAANAQLVFDNDAWVDDRNDVEDVTDGLNAELAMRLGALFSAGEAVTAESVGQRVVDASEVISTLDEGGLATIGFARQPLGTDGDDGSLLDRARELVGMDETTVDEVESIKAVETTLRQATNGRLTFDCPRDAARSGLLVVSGPPEWLHQTAVSDGQSWLADEIGSVQLRTGDNPMPGGDELTILVLLGGIRGAPRIKEIQAATDLEHHHHHH	not soluble
MKYVFIENHRAEFSIKAMCRVLRVARSGWYVWLRRRHQMSLRQQFRLTCDAAVHKAFFEAKQRYGAPRLADELPEFNIKTIAASLRRQGLRAKASRKFSPVSYRAHGLPVLENLLEQDFSASGPKPEVGG	not soluble
MYDFVIIGGGIIGMSTAMQLIDVYPDARIALLEKESAPACHQTGHNSGVIHAGVYYTPGSLKAQFCLAGNRATKAFCDQNGIRYDNCGKMLVATSDLEMERMRALWERTAANGIEREWLNADELREREPNITGLGGIFVPSSGIVSYRDVTAAMAKIFQSRGGEIIYNAEVSGLNEHKNGVVIRTRQGGEYEASTLISCSGLMADRLVKMLGLEPGFIICPFRGEYFRLAPEHNQIVNHLIYPIPDPAMPFLGVHLTRMIDGSVTVGPNAVLAFKREGYRKRDFSFSDTLEILGSSGIRRVLQNHLRSGLGEMKNSLCKSGYLRLVQKYCPRLSLSDLQPWPAGVRAQAVSPDGKLIDDFLFVTTPRTIHTCNAPSPAATSAIPIGAHIVSKVQTLLASQSNPGRTLRAARSVDALHAAFNQ	not soluble
MADNDFLSGEAIMVFKKEILDSHSDFTRSLSHQSASPEAYDQENVFSQDFQPFMKQDKETQNSASQPTSEQSLANRDPCTVPDDLREEMMRQRRKEDAFKTALCDAYKRSQACSYGDQCRFAHGVHELRLPMNPRGRNHPKYKTVLCDKFSMTGNCKYGTRCQFIHKIVDGNAAKLASGAHANTSSKSPARNAAAHNHSLFVPQGSTDRSMDLNQSLPIRQSDLVRAFARATRLDVSGYNSTAQLAQYFESQFQRIQQLSSHHH	not soluble
MSDPSSINGGIVVAMTGKDCVAIACDLRLGSQSLGVSNKFEKIFHYGHVFLGITGLATDVTTLNEMFRYKTNLYKLKEERAIEPETFTQLVSSSLYERRFGPYFVGPVVAGINSKSGKPFIAGFDLIGCIDEAKDFIVSGTASDQLFGMCESLYEPNLEPEDLFETISQALLNAADRDALSGWGAVVYIIKKDEVVKRYLKMRQD	soluble
MSGALDGVRVLDLSRVLAGPYATMILGDLGADVIKVEAPGGSDDTRFWGPPFQNGMSAYYTAVNRNKRSITVNLKSAEGQETIRRLAETADVLIHNFKTGTMEQWELGYESLSRLNPRLIYCSITGFGETGPLAPLAGYDYIIQAMSGWMSINGTADTGPLKVGVAVTDVFTGLYAAIAIEAALLAREKTGRGQKIDLALFDCAVSALVNVAANYLLSGDVPKPLGNEHPNIVPYSTYMASDGPIVIAVGNDRQFQALCSLLSDHSLGTDPRFQTNPGRVAHREELNRRLNEEIKRRTRAEWQRLLAEKGIPCGPVQTLDELFRHPQTAAREMTVTVHHPIVGPLTLVASPLKLSDTAVSYRLPPPLAGEHNGEVEAGWQGKPAAENGPHDKNQ	not soluble
MSASIRDAGVADLPGILAIYNDAVGNTTAIWNETPVDLANRQAWFDARARQGYPILVASDAAGEVLGYASYGDWRPFEGFRGTVEHSVYVRDDQRGKGLGVQLLQALIERARAQGLHVMVAAIESGNAASIGLHRRLGFEISGQMPQVGQKFGRWLDLTFMQLNLDPTRSAP	soluble
MTTRQIKIVPKLIAIFTGKAAVRAAWGGRGSGKTRSFALMAALKGYQFGMGGISGTILCARQFQNSLAESSLEEIKRAIEGHDFLKDYYKVGESSIKSIDGRIAFQFSGLDRNIASIKSMGRILLCWVDEAEPVTETAWQTLIPTLREEGEGWRAELWVTWNPLRDNAPVERRFRFSNNEAIKRVEINWSDNPKFPKILNEARLDDLKNRPETYKHIWEGAYLTAVQGAYYQKEMLAAEQEGRIGRVARDPLMQMRAFWDIGGTGAKADATAIWIAQFVGREIRVLDYYEAQGQPLSEHIGWLRRNGYEKALMVLPHDGATRDRVHNVSFESALNDAGFETQVIPHQGAGAVKMRIEAVRRILPSVWFHEETTVAGRKALNWYHEKWDEKRGIGLGAEHDWSSHGADAFGLMCIVYEAPRIKPQQERYRAIEREAASWMAF	not soluble
TALADVVITGYQTLSKERATGSFDKVDSSVLSSRPTADLSTALQGLVAGMQATEKEDGSIDFLIRGSSSLYADKKPLLVVDGFPIQGDFSSINPNDVESVTVLKDAAAASIWGARSANGVIVVTTKKGKKDK	not soluble
MSLLRPLSKTDCPMLQEINAKALGYLVSLDLLERQYERLIEDCHHYFLAYADKDTNQLLGYVHAERYETLYASDGLNLLGLAVLPAYQRRGIGSALLRALESQARQEGIAFIRLNSASHRKEAHAFYRNLDYADDKTQLRFIKNLQGDDNDFEGHHHHHH	soluble
MQHSLRSDGAGFYQLACCEYSLSMRKIALSGGFWGGVCRMAMKSIFFMFHQGNRRLTLTAVQGILLRFSLF	not soluble
MAAASISAIGCNQTLIGTSFYGGWGSSISGEDYQTMLSKTVAPPQQARVSRKAIRAVPMMKNVNEGKGLFAPLVVVTRNLVGKKRFNQLRGKAIALHSQVITEFCKSIGADAKQRQGLIRLAKKNGERLGFLA	not soluble
MLTQEQIDIIREGPDYFLESIWFRIGQLYGLSPGQIDHDSFEERKNDLFFLLGKLLDEGQIKIGNHKGNFISGPTPALVEMFRSSFPDSDEKAQAIWFITECPGGIVWVLKGQGEKGQDVYKWWLFKDEK	not soluble
MNALPPAIFLMGPTAAGKTDLAIELSKVLPCELISVDSALVYRGMDIGTAKPSKAQLAEFPHRLIDILDPAQSYSAADFRSDALAAMAQITARGNIPLLVGGTMLYFKALLDGLADMPAANAAVRAQLEADAQAFGWQSLHDQLAVVDPVSAARIHPNDPQRLIRALEVYRVSGMSMTAHREQQTAQSTEAAASGCQQLPYTVANLAIAPADRKVLHQRIALRFEQMLDQGFLDEVLALRSRGDLHAGLPSIRAVGYRQVWDHLDGKLTREEMQERGIIATRQLAKRQFTWLRSWDDLHWLDSLASDNLSRALKYLGSVSILSLEHHHHHH	not soluble
GPGSMEPKSVEEYSQQNYWIGRYEVEEQHDWFLSVRQPTIAALCDELLKVFQQRERLHSADGNVEGDQPALRVLHLGTGNSSLCMDLYEAVRERQLPFALHQVAMDYAPNVIERMQSKYSPDILPNAQWIVGDVRKLEEFREYGPFDAVIEKGTMDAIEADKNRPEMKGDVEAMLHGVDTLLKHAKGYGAFLQVTWVAPHLRLPYTKGDAFAWGDQVRYSLLGESDIYRLFVYTVRE	soluble
MAHHHHHHMRVRHKVRNAVLLKGGEADTVKPLFLLNKIKNRKLQKRNNVTLHMDNSNEDTSRLSLLKNLDDESKVITQSPEWNEKMPLLEITNLHAMEVEGGKEILKGINLTIFLGEKHTIMGRNGSGKSTLAKVIAGHPYYKVTSGTIKFKGLNLSELPVNVRSLCGIFLAFQYPVELPMVKNNEFLRAALNSHRRQRNEPEISATEFDLLMIEEIKKVGLSSEFLDRPVNYGFSGGEKKRNEILQMLILKPSFCILDETDSGLDVDSFKLTSNVITNFSNEKNSFLIVTHYKKLLELLRPNFIHIMHQGKIIESGDYSLVDKIEAKGYAQFVKDS	not soluble
MGAFFVGVIWHFPVLAFCPLPDKPQWVAVRQVVDGDTLRLVDGRSVRLIGINAPEMGRKGRTSEPYAEAARRRLQALVKANDDRVGLVPGVEGKDKYGRTLAHIYSRNGDNLEAQLLSEGLGYRVAIAPNVRLSGCQQLAEQAARQAGVGLWRHSPVVAASDVRQSGFAVVRGRIEGIERNRGGVWLTLGSTLVLQVPARLQRNFPASFFDNLKGRQVEARGWVLDRSRRGGLKPGQRRWVLPLTDPSMLERISGLEHHHHHH	not soluble
MGSDKIHHHHHHMTDLIYNDPDFVQFYDIENQDGRADFDYCVRLARDGGSVLDLGCGTGQLAAEMAQGCNVTGVDPASAMLDVARRRTGGDKVDWVVADARTVRLGRRFDLVLLTGHVFQVFLTDEDQRAVLRTIAEHLGPGGRFIFDTRNPAVEAWLEWTPQRSERMVEHPSLGTVRAWYDADWDAASAVVTYSTFYEIPGGRPILGAESKIAFPKKQDLAGMLDDAGLLVEQWLGDWQGEPYADTSPEIIPIGRLR	not soluble
MSLVSSTLKSVSRCRHFRIDGFWLQTVMSDIFSHTALSNLAEFSVSELSGSIKRTVETAFEQVRVRGEISGYRGPHSSGHAYFSLKDDRARIDAVIWKGTFSRLKFRPEEGMEVIATGKITTFPGSSKYQIVIESLEPAGAGALMALLEDRRRRLAAEGLFDSARKRPLPFMPRVIGVVTSPTGAVIRDILHRISDRFPVHVVVWPVKVQGEGSGEEVANAIRGFNALKPGGDIARPDVLIVARGGGSLEDLWSFNDEIVVRAAAESEIPLISAVGHETDTTLIDYAADVRAPTPTGAAEMAVPVRAELEAQLSGLAARLSGSVSRQMDNRRQGVRALVRALPSLDQLLALPRRRFDEAASGLGRGLELTTLNKRRAFERSASGLRPETLLNGLKHHRQRITERMHRAETLVERRLLQGKGRVDSFDSALRSLPARLLGQLERQKERVVTAARRADTAVLHRMAQNRSGLAAHDRILQSLSYKNVLNRGYAVIRDEENRPLTRAAAIASGAAVSMEFADGRVSAITTGEGTPAPETAAAPKKKPAKPASSDPGNQGNLFEGHHHHHH	not soluble
MSGFKWSPDQKWISFLAVPTASWSADSNTLCLVRADGSRFEKVDQMLLNAQWFQWAPSKNILAYIEGSGRVALENKHLKVKELPALQQNIFTPKGYVDWDFVWKNDRVIIVSRAKEAGIETPPEKRPLPSLYEVDSTSNAQHQITKKTNKQGDYHPIFMKKSNQLIWIRSDRKKADVWLAHKDRKQEKKWIENIDVPAWYYEKWNWGNVISVKEELEHHHHHH	not soluble
HWPPLGIVRDLWTESGIGPERVAVMERVAGPKCCLLGRQNDRPSGAAFVGLAGPFAMLHALEVTPALRRLGSAQAMIRRGACWAEAAGAHWFSLVVTTANAPARALYEALGMEEVGHYHYRLK	not soluble
